Results: PMC11980035, “Activation of automethylated PRC2 by dimerization on chromatin” (Molecular cell, 2024)

Molecular target: T1, Enhancer of zeste homolog 2 (EZH2), isoform 2, subunit of recombinant human PRC2, automethylated (human, UniProt Q15910-2 1-751, K510, K514 and K515 methylated to varying degrees (automethylation))
T1 construct: EZH2 isoform 2, human, full-length; Stood in the assay as a subunit of PRC2; also called EZH2^dist; EZH2^prox; source: as subunit of m1: HighFive / Trichoplusia ni insect cells, baculovirus, purified within PRC2
Test: cryo-EM structure; 800 nM automethylated PRC2 with 200 nM biotinylated nucleosome and 100 μM SAH in 25 mM HEPES pH 7.9, 50 mM KCl, 1 mM TCEP, 30 minutes at RT; nucleosome held on streptavidin affinity grids; classes of a PRC2 dimer and of a PRC2 monomer on the nucleosome
Conditions: both partners purified

T1 sequence (Q15910 other isoform, or with tags, fused parts or gaps): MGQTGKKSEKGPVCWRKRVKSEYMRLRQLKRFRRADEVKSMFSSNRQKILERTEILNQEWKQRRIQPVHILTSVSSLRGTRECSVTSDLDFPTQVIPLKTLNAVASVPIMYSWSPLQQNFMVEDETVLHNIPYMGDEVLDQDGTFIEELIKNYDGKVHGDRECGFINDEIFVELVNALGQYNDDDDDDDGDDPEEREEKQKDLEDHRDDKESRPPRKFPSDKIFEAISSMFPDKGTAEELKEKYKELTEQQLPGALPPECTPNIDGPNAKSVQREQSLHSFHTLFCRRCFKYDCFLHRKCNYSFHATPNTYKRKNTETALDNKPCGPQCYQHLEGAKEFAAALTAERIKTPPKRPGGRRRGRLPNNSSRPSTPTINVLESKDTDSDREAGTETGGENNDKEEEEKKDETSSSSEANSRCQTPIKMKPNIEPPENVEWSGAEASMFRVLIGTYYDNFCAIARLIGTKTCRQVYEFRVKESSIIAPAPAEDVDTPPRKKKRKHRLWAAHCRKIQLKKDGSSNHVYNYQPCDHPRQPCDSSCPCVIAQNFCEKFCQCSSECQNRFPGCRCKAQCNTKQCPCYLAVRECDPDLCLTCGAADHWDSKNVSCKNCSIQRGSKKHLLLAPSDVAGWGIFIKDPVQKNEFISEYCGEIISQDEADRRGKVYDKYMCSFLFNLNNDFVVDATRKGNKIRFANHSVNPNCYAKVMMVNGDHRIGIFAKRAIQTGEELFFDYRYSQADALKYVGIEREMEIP

B1: Embryonic ectoderm development (EED), subunit of recombinant human PRC2 (natural protein)
chain: not shown
notes: EED, human, full-length; Stood in the assay as a subunit of PRC2; also called EED^prox; EED^dist; source: as subunit of m1: HighFive / Trichoplusia ni insect cells, baculovirus, purified within PRC2
Question: Does B1 bind?
Answer: Result: binds
